Entries after “also recorded” stand apart in the source; their conditions may differ.
Assays:
[1] = system: Caki-2 cells overexpressing DCLK1; assay: Proliferation/drug resistance assay (MTT), DCLK1-overexpressing cells; type: cell-based, human; conditions: increasing drug concentrations; FIG. 16-17
From the text: This gBlock also contains a part of human DCLK1 isoform 1 sequence shared with isoform 2, with the addition of the unique DCLK1 isoform 2 C-terminal sequence (NCBI Reference Sequence: XM_005266592.2). The vector containing DCLK1 isoform 1 and the gBlock were digested with EcoRI and Scat Both digested vector and gBlock fragment were gel purified and DCLK1 isoform 2 was constructed by ligating the digested vector with the synthetic DNA fragment. The ligated cDNA product was confirmed by automatic sequencing. […] RCC cell line Caki-2 was infected with Lentivirus containing human DCLK1 cDNA sequence to overexpress DCLK1 Isoform 2/long-α (caki2-dsRed-DCLK1) or red fluorescent protein (RFP) cDNA as control (caki2-dsRed) and selected to 100% expression with puromycin.
Cells (5000/well) were seeded into a 96-well tissue culture plate in quadruplicate. […] 48 or 72 h after incubation, 10 μL of MTT (RND Systems) was added to each well and cells were incubated at 37° C. for 4 h. […] In order to fully dissolve the precipitated MTT crystals, the plate was placed on a shaker at low speed for 1 min and a microplate reader was used to read the OD570 for each well.
The high level of expression of vascular endothelial growth factor (VEGF) and its receptors in RCC supports its highly vascular nature making VEGF and its receptors therapeutic targets. […] Given the tight relationship between sternness and the response to targeted therapies and its importance in patient survival, we further investigated DCLK1's role in this process. Caki-2 cells overexpressing DCLK1 were seeded into 96-well plates, allowed to attach overnight, and then treated with increasing concentrations of sunitinib or sorafenib. Relative cell viability was then evaluated by MTT assay.
The intracellular serine/threonine kinase mTOR is involved in a wide range of pathways and plays an essential role in cellular metabolism and cancer progression.

[2] = system: AsPC-1 pancreatic cancer cells; assay: In vitro PBMC-killing assay (Caspase-3/7 Glo), pancreatic cancer cells; type: cell-based; conditions: 48 h antibody pretreatment, then 72 h co-culture with human PBMC; FIG. 24B
Experimental: (§1) To further assess the functional relevance of these findings we seeded ACHN renal and AsPC-1 pancreatic cancer cells into 96 wells and subjected them to antibody-dependent cell-mediated cytotoxicity assay. Briefly, 10^4 cancer cells were seeded into each well after 48 hours pretreatment with either isotype control or CBT-15 monoclonal antibody. Human peripheral blood […] were then seeded into each well at 10^5 cells per well and co-cultured for 72 h. After 72 h Caspase-3/7 Glo assay was performed to assess apoptosis.

[3] = system: ACHN cells; assay: In vitro PBMC-killing assay (Caspase-3/7 Glo), renal cancer cells; type: cell-based; conditions: antibody pretreatment, then 72 h co-culture with human PBMC; FIG. 24A
Experimental: ACHN cells were seeded into a 96-well plate at 5×10^4 cells per well and allowed to attach overnight at 37° C. CBT-15 mAB or isotype control mAB were added to the ACHN wells at concentrations of 100 μg/mL in quadruplicate and incubated at 37° C. for 72 h. After mAB treatment, the media was replaced and 1.25×10^5 primary human PBMC cells (ATCC) were co-incubated with the ACHN cells for 72 h. Finally, luminescent CaspaseGlo® 3/7 activity (Promega) assay was performed according to the manufacturer's protocol as a surrogate measure of apoptosis.
as §1

[4] = target: T1, DCLK1 isoform 4 purified protein (Homo sapiens, UniProt O15075); assay: Western blotting against purified DCLK1 protein; type: binding; conditions: FIG. 1
T1 sequence (O15075 1-433 isoform O15075-4): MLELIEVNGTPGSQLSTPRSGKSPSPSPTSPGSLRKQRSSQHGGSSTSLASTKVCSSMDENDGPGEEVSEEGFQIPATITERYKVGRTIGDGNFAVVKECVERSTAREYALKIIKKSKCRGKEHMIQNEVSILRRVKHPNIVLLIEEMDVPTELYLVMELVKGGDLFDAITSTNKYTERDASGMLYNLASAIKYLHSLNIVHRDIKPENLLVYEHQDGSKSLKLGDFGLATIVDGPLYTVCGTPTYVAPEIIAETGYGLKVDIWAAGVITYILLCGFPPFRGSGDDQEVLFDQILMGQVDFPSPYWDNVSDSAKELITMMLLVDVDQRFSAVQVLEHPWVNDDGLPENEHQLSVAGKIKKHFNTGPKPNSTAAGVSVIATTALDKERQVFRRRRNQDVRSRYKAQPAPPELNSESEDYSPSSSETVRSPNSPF
Experimental: Lysates from ACHN or CAKI2 cells were subjected to Western blot analysis. The concentration of total proteins was determined by BCA protein assay (Pierce, Rockford, Ill.). 40 μg of protein lysates were size separated on a 4%-20% SDS polyacrylamide gel and transferred onto a PVDF membrane. The membrane was blocked in 1% caseine for 30 minutes and probed with primary antibody α-DCLK1 (ABCAM, ab31704), HIF-1α (ABCAM, ab2185), Vimentin (Santa Cruz, S.C.-7557), ALDH1A1 (ABCAM, ab52492), β-Actin (ABCAM, ab8226) overnight at 4° C. The membrane was then washed 3 times with TBST and probed with species-appropriate secondary antibody (cw800-conjugated) for 30 mins at room temperature protected from light. Finally, proteins were detected using a LICOR Odyssey Infrared Imager and density quantification was performed in Image Studio Lite (LICOR) where appropriate.
The resulting monoclonal antibodies produced from this screening process included an Immunoglobulin A species (CBT-15A) and an Immunoglobulin G213 species (CBT-15G). Following purification of the resulting antibodies, their affinity for DCLK1 was confirmed by Western blotting against DCLK1 isoform 4 purified protein (FIG. 1). […] The ability of these antibodies to bind extracellular DCLK1 was further apparent in FACS sorting experiments. […]

[5] = system: pancreatic cancer SW1990 tumor xenograft; assay: SW1990 xenograft tumor study; type: in vivo, mice; conditions: 25 mg/kg biweekly
Experimental: 0.5×10^6 cells were injected into the flanks of 8 week-old athymic nude mice and the resulting tumors were allowed to grow to an average volume 100 mm^3. Upon reaching this volume we began delivering CBT-15 or isotype control mAB at 25 mg/kg biweekly. Tumor volume measurements were taken approximately every other day. At the end of 4 weeks from the start of injections animals were culled and tumors were excised, measured, and weighed.

With `CO[C@H]1C[C@@H]2CC[C@@H](C)[C@@](O)(O2)C(=O)C(=O)N2CCCC[C@H]2C(=O)O[C@H]([C@H](C)C[C@@H]2CC[C@@H](OC(=O)C(C)(CO)CO)[C@H](OC)C2)CC(=O)[C@H](C)/C=C(\C)[C@@H](O)[C@@H](OC)C(=O)[C@H](C)C[C@H](C)/C=C/C=C/C=C/1C` [temsirolimus] the “sensitivity of DCLK1-overexpressing cells to the drug compared to dsRed vector control cells (relative cell viability, MTT)” value (from here on “sensitivity … (relative cell viability, MTT)”) [1] was “significantly decreases sensitivity”.

With `CO[C@H]1C[C@@H]2CC[C@@H](C)[C@@](O)(O2)C(=O)C(=O)N2CCCC[C@H]2C(=O)O[C@H]([C@H](C)C[C@@H]2CC[C@@H](OCCO)[C@H](OC)C2)CC(=O)[C@H](C)/C=C(\C)[C@@H](O)[C@@H](OC)C(=O)[C@H](C)C[C@H](C)/C=C/C=C/C=C/1C` [everolimus] the “sensitivity … (relative cell viability, MTT)” value [1] was “significantly decreases sensitivity”.

With `CNC(=O)c1cc(Oc2ccc(NC(=O)Nc3ccc(Cl)c(C(F)(F)F)c3)cc2)ccn1` [sorafenib] the “sensitivity … (relative cell viability, MTT)” value [1] was “did not elicit significant resistance; also recorded: not resistant”.

B1: CBT-15G: Anti-DCLK1 mouse monoclonal antibody, Immunoglobulin G213 species, raised against immunogen no. 8; VH SEQ ID NO:24, VL SEQ ID NO:26 (antibody, V domains shown)
VH: EVQLQQSGTALARPGASVKMSCKASGYSFTSYWMHWVKQRPGQGLEWIGAIYPGKSDTSYNQKFKGKAKLTAVTSASTAYMELSSLTNEDSAVYYCTRYGKGAMDYWGQGTSVTVSS
VL: DIVLTQSHKFMSTSVGDRVTITCKASQDVNTAVAWYQKKPGQSPKLLIYWASTRLTGVPDRFTGSGSGTDYTLTISSVQAEDLALYYCQQHYSTPYTFGGGTKLEIK
modifications: HC variable AA sequence of CBT-15G; LC variable AA sequence of CBT-15G
B1 was tested, and the “immune cell mediated cell killing, Caspase-3/7 activity relative to isotype control” value [2] was “significantly increased; also recorded: increase”, the “PBMC mediated apoptosis, Caspase-3/7 activity relative to isotype control” value [3] was “can sensitize” and the “affinity for DCLK1 by Western blot (detection of purified DCLK1 protein)” value [4] was “confirmed; also recorded: detect”. The “excised tumor volume vs isotype mAB” value ([5]; end of treatment, FIG. 29, 32) was “significant decrease”, the “excised tumor weight vs isotype mAB” value ([5]; end of treatment, FIG. 30, 33) was “decrease” and the “xenograft tumor growth (tumor volume over time) vs isotype mAB” value ([5]; athymic nude mice, 4 weeks, FIG. 28, 31, 25 mg/kg) was “strongly inhibited; also recorded: substantially reduced”.
